This is an account of results in patent publication US20110243992.

This data set deals with iron co-factored superoxide dismutase (SodA) of M. tuberculosis/BCG, wild type, as produced by BCG.

In the case of “mutant SodA ΔE54 (also contains H28R substitution)”, the “total SOD activity, 3D-BCG (ΔE54 SodA mutant put into DD-BCG) versus DD-BCG” value is listed as “FIG. 16; 16-fold reduction” and the “total SOD activity, ΔE54 SodA mutant in BCG or SIG-BCG” value is listed as “FIGS. 4, 14; 2- to 4-fold reduction”.
